Assay results reported in article PMC4721541 (Bioscience Reports, 2015).

Legend:
[1] = target: the molecule itself; assay: SEC; gel filtration on Superdex 200 10/30, 4°C, BAE (150 mM NaCl, 50 mM Tris/HCl, 1 mM EDTA, pH 7.4); oligomer state by elution position against the WT
[2] = target: the molecule itself; assay: SEC-MALS; multi-angle laser light scattering after Superdex 200 10/30 in buffer A (150 mM NaCl, 50 mM Tris/HCl, pH 7.4); DAWN EOS photometer, Optilab rEX refractor

Protein | stoichiometry N [1] | stoichiometry N [2]
Erv1 (essential for respiration and viability 1), wild type (enzyme, S. cerevisiae, UniProt P27882 1-189, looked up, Erv1, Saccharomyces cerevisiae, FAD-dependent thiol oxidase, 189 amino acids, full length; Construct in pET24a(+) (NdeI/XhoI); also called WT Erv1; WT; source: E. coli Rosetta-gami 2, purified (Ni2+ resin, gel filtration)) MKAIDKMTDNPPQEGLSGRKIIYDEDGKPCRSCNTLLDFQYVTGKISNGLKNLSSNGKLAGTGALTGEASELMPGSRTYRKVDPPDVEQLGRSSWTLLHSVAASYPAQPTDQQKGEMKQFLNIFSHIYPCNWCAKDFEKYIRENAPQVESREELGRWMCEAHNKVNKKLRKPKFDCNFWEKRWKDGWDE | 4 | –
Erv1 W95F (enzyme, S. cerevisiae, UniProt P27882 1-189, looked up, Erv1, Saccharomyces cerevisiae, 189 amino acids, full length, with W95F; Made by site-directed mutagenesis on the construct of m1; source: E. coli Rosetta-gami 2, purified (Ni2+ resin, gel filtration)) MKAIDKMTDNPPQEGLSGRKIIYDEDGKPCRSCNTLLDFQYVTGKISNGLKNLSSNGKLAGTGALTGEASELMPGSRTYRKVDPPDVEQLGRSSFTLLHSVAASYPAQPTDQQKGEMKQFLNIFSHIYPCNWCAKDFEKYIRENAPQVESREELGRWMCEAHNKVNKKLRKPKFDCNFWEKRWKDGWDE | 4 | –
Erv1 W183F (enzyme, S. cerevisiae, UniProt P27882 1-189, looked up, Erv1, Saccharomyces cerevisiae, 189 amino acids, full length, with W183F; Made by site-directed mutagenesis on the construct of m1; FAD content 71% as purified; source: E. coli Rosetta-gami 2, purified (Ni2+ resin, gel filtration)) MKAIDKMTDNPPQEGLSGRKIIYDEDGKPCRSCNTLLDFQYVTGKISNGLKNLSSNGKLAGTGALTGEASELMPGSRTYRKVDPPDVEQLGRSSWTLLHSVAASYPAQPTDQQKGEMKQFLNIFSHIYPCNWCAKDFEKYIRENAPQVESREELGRWMCEAHNKVNKKLRKPKFDCNFWEKRFKDGWDE | – | 2
Erv1 W187F (enzyme, S. cerevisiae, UniProt P27882 1-189, looked up, Erv1, Saccharomyces cerevisiae, 189 amino acids, full length, with W187F; Made by site-directed mutagenesis on the construct of m1; source: E. coli Rosetta-gami 2, purified (Ni2+ resin, gel filtration)) MKAIDKMTDNPPQEGLSGRKIIYDEDGKPCRSCNTLLDFQYVTGKISNGLKNLSSNGKLAGTGALTGEASELMPGSRTYRKVDPPDVEQLGRSSWTLLHSVAASYPAQPTDQQKGEMKQFLNIFSHIYPCNWCAKDFEKYIRENAPQVESREELGRWMCEAHNKVNKKLRKPKFDCNFWEKRWKDGFDE | 4 | –
Erv1 W179F (enzyme, S. cerevisiae, UniProt P27882 1-189, looked up, Erv1, Saccharomyces cerevisiae, 189 amino acids, full length, with W179F; Made by site-directed mutagenesis on the construct of m1; source: E. coli Rosetta-gami 2, purified (Ni2+ resin, gel filtration)) MKAIDKMTDNPPQEGLSGRKIIYDEDGKPCRSCNTLLDFQYVTGKISNGLKNLSSNGKLAGTGALTGEASELMPGSRTYRKVDPPDVEQLGRSSWTLLHSVAASYPAQPTDQQKGEMKQFLNIFSHIYPCNWCAKDFEKYIRENAPQVESREELGRWMCEAHNKVNKKLRKPKFDCNFFEKRWKDGWDE | 4 | –
Erv1 W157F (enzyme, S. cerevisiae, UniProt P27882 1-189, looked up, Erv1, Saccharomyces cerevisiae, 189 amino acids, full length, with W157F; Made by site-directed mutagenesis on the construct of m1; source: E. coli Rosetta-gami 2, purified (Ni2+ resin, gel filtration)) MKAIDKMTDNPPQEGLSGRKIIYDEDGKPCRSCNTLLDFQYVTGKISNGLKNLSSNGKLAGTGALTGEASELMPGSRTYRKVDPPDVEQLGRSSWTLLHSVAASYPAQPTDQQKGEMKQFLNIFSHIYPCNWCAKDFEKYIRENAPQVESREELGRFMCEAHNKVNKKLRKPKFDCNFWEKRWKDGWDE | 4 | –
Erv1 W132F (enzyme, S. cerevisiae, UniProt P27882 1-189, looked up, Erv1, Saccharomyces cerevisiae, 189 amino acids, full length, with W132F; Made by site-directed mutagenesis on the construct of m1; source: E. coli Rosetta-gami 2, purified (Ni2+ resin, gel filtration)) MKAIDKMTDNPPQEGLSGRKIIYDEDGKPCRSCNTLLDFQYVTGKISNGLKNLSSNGKLAGTGALTGEASELMPGSRTYRKVDPPDVEQLGRSSWTLLHSVAASYPAQPTDQQKGEMKQFLNIFSHIYPCNFCAKDFEKYIRENAPQVESREELGRWMCEAHNKVNKKLRKPKFDCNFWEKRWKDGWDE | 4 | –
